Results from paper PMC9646512, “Directed evolution and selection of biostable l-DNA aptamers with a mirror-image DNA polymerase”.

B1: D-L-9-1t (structured_DNA)
DNA: ACGGAACGCGTTTCAAGACTACCGTGTTTGTTCCGT
modifications: natural D-DNA
B2: D-6 aptamer (structured_DNA)
DNA: CGGATCCAGTTACGGAACTGAACAGAAGGGTGGTGTGGTTGGACTGTTCATTCAGTAAGCTTCGG
B3: D-L-9-2t (structured_DNA)
DNA: GATGAACTTGTTGAAACCCAACGGGAGAATCGTTCATT
modifications: natural D-DNA

Molecular target: native human alpha-thrombin (Homo sapiens, UniProt P00734;P00734 328-363;364-622)
Experiment: ITC; ITC: 20 mM HEPES-NaOH, 150 mM NaCl, 5 mM KCl, 2 mM MgCl2, 1 mM CaCl2, pH 7.4, 25 C; EMSA: same plus 0.05% Tween 20 and 10% glycerol, room temperature 30 min, ge

Binder	binding result	Kd [nM]
B1	no binding	
B2		27
B3	no binding	
